Patent publication US20130157929A1, “GLUCAGON ANALOGUES” (ZEALAND PHARMA A/S, published 2013)
Starred links: 1 amine or outer side, 2 acyl side, 3 side chain; linkers in the order of their positions; H or OH if unused. Non-standard residues stand in square brackets, D forms with d. Groups on a side chain read outwards from the residue. *: point of attachment. γGlu = O=C(O)[C@H](CCC(=O)[*:2])N[*:1]; Palmitoyl = CCCCCCCCCCCCCCCC(=O)*; hPhe = N[C@@H](CCc1ccccc1)C(=O)O; Aib = CC(C)(N)C(=O)O

How the values were obtained:
[1] = target: human glucagon-like peptide 1 receptor (GLP-1R) (human, UniProt P43220); assay: cell-based or functional assay
[2] = target: human glucagon receptor (glucagon-R) (human, UniProt P47871); assay: cell-based or functional assay

Row | Binder | EC50 (nM) GLP-1R, cAMP formation [1] | EC50 (nM) GluR, cAMP formation [2] | EC50 (nM) GluR, cAMP formation, earlier determination [2] | EC50 (nM) GLP-1R, cAMP formation, earlier determination [1]
1 | H-H[Aib]LGTFTSDYSKYLDSK([γGlu-Palmitoyl])AAHDFVEWLLSA-NH2 (SMILES CCCCCCCCCCCCCCCC(=O)N[C@@H](CCC(=O)NCCCC[C@H](NC(=O)[C@H](CO)NC(=O)[C@H](CC(=O)O)NC(=O)[C@H](CC(C)C)NC(=O)[C@H](Cc1ccc(O)cc1)NC(=O)[C@H](CCCCN)NC(=O)[C@H](CO)NC(=O)[C@H](Cc1ccc(O)cc1)NC(=O)[C@H](CC(=O)O)NC(=O)[C@H](CO)NC(=O)[C@@H](NC(=O)[C@H](Cc1ccccc1)NC(=O)[C@@H](NC(=O)CNC(=O)[C@H](CC(C)C)NC(=O)C(C)(C)NC(=O)[C@@H](N)Cc1c[nH]cn1)[C@@H](C)O)[C@@H](C)O)C(=O)N[C@@H](C)C(=O)N[C@@H](C)C(=O)N[C@@H](Cc1c[nH]cn1)C(=O)N[C@@H](CC(=O)O)C(=O)N[C@@H](Cc1ccccc1)C(=O)N[C@H](C(=O)N[C@@H](CCC(=O)O)C(=O)N[C@@H](Cc1c[nH]c2ccccc12)C(=O)N[C@@H](CC(C)C)C(=O)N[C@@H](CC(C)C)C(=O)N[C@@H](CO)C(=O)N[C@@H](C)C(N)=O)C(C)C)C(=O)O) [Compound 13] | 0.28 nM | 11 nM |  | 
2 | H-H[Aib][hPhe]GTFTSDYSKYLDSK([γGlu-Palmitoyl])AAHDFVEWLLSA-NH2 (SMILES CCCCCCCCCCCCCCCC(=O)N[C@@H](CCC(=O)NCCCC[C@H](NC(=O)[C@H](CO)NC(=O)[C@H](CC(=O)O)NC(=O)[C@H](CC(C)C)NC(=O)[C@H](Cc1ccc(O)cc1)NC(=O)[C@H](CCCCN)NC(=O)[C@H](CO)NC(=O)[C@H](Cc1ccc(O)cc1)NC(=O)[C@H](CC(=O)O)NC(=O)[C@H](CO)NC(=O)[C@@H](NC(=O)[C@H](Cc1ccccc1)NC(=O)[C@@H](NC(=O)CNC(=O)[C@H](CCc1ccccc1)NC(=O)C(C)(C)NC(=O)[C@@H](N)Cc1c[nH]cn1)[C@@H](C)O)[C@@H](C)O)C(=O)N[C@@H](C)C(=O)N[C@@H](C)C(=O)N[C@@H](Cc1c[nH]cn1)C(=O)N[C@@H](CC(=O)O)C(=O)N[C@@H](Cc1ccccc1)C(=O)N[C@H](C(=O)N[C@@H](CCC(=O)O)C(=O)N[C@@H](Cc1c[nH]c2ccccc12)C(=O)N[C@@H](CC(C)C)C(=O)N[C@@H](CC(C)C)C(=O)N[C@@H](CO)C(=O)N[C@@H](C)C(N)=O)C(C)C)C(=O)O) [Compound 14] | 3.5 nM | 8.9 nM |  | 
3 | H-H[Aib]WGTFTSDYSKYLDSK([γGlu-Palmitoyl])AAHDFVEWLLSA-NH2 (SMILES CCCCCCCCCCCCCCCC(=O)N[C@@H](CCC(=O)NCCCC[C@H](NC(=O)[C@H](CO)NC(=O)[C@H](CC(=O)O)NC(=O)[C@H](CC(C)C)NC(=O)[C@H](Cc1ccc(O)cc1)NC(=O)[C@H](CCCCN)NC(=O)[C@H](CO)NC(=O)[C@H](Cc1ccc(O)cc1)NC(=O)[C@H](CC(=O)O)NC(=O)[C@H](CO)NC(=O)[C@@H](NC(=O)[C@H](Cc1ccccc1)NC(=O)[C@@H](NC(=O)CNC(=O)[C@H](Cc1c[nH]c2ccccc12)NC(=O)C(C)(C)NC(=O)[C@@H](N)Cc1c[nH]cn1)[C@@H](C)O)[C@@H](C)O)C(=O)N[C@@H](C)C(=O)N[C@@H](C)C(=O)N[C@@H](Cc1c[nH]cn1)C(=O)N[C@@H](CC(=O)O)C(=O)N[C@@H](Cc1ccccc1)C(=O)N[C@H](C(=O)N[C@@H](CCC(=O)O)C(=O)N[C@@H](Cc1c[nH]c2ccccc12)C(=O)N[C@@H](CC(C)C)C(=O)N[C@@H](CC(C)C)C(=O)N[C@@H](CO)C(=O)N[C@@H](C)C(N)=O)C(C)C)C(=O)O) [Compound 15] | 5.8 nM | 43 nM |  | 
4 | H-H[Aib]VGTFTSDYSKYLDSK([γGlu-Palmitoyl])AAHDFVEWLLSA-NH2 (SMILES CCCCCCCCCCCCCCCC(=O)N[C@@H](CCC(=O)NCCCC[C@H](NC(=O)[C@H](CO)NC(=O)[C@H](CC(=O)O)NC(=O)[C@H](CC(C)C)NC(=O)[C@H](Cc1ccc(O)cc1)NC(=O)[C@H](CCCCN)NC(=O)[C@H](CO)NC(=O)[C@H](Cc1ccc(O)cc1)NC(=O)[C@H](CC(=O)O)NC(=O)[C@H](CO)NC(=O)[C@@H](NC(=O)[C@H](Cc1ccccc1)NC(=O)[C@@H](NC(=O)CNC(=O)[C@@H](NC(=O)C(C)(C)NC(=O)[C@@H](N)Cc1c[nH]cn1)C(C)C)[C@@H](C)O)[C@@H](C)O)C(=O)N[C@@H](C)C(=O)N[C@@H](C)C(=O)N[C@@H](Cc1c[nH]cn1)C(=O)N[C@@H](CC(=O)O)C(=O)N[C@@H](Cc1ccccc1)C(=O)N[C@H](C(=O)N[C@@H](CCC(=O)O)C(=O)N[C@@H](Cc1c[nH]c2ccccc12)C(=O)N[C@@H](CC(C)C)C(=O)N[C@@H](CC(C)C)C(=O)N[C@@H](CO)C(=O)N[C@@H](C)C(N)=O)C(C)C)C(=O)O) [Compound 16] | 0.13 nM | 3 nM |  | 

Further lines, results first:

Row | EC50 (nM) GLP-1R, cAMP formation [1] | EC50 (nM) GluR, cAMP formation [2] | EC50 (nM) GluR, cAMP formation, earlier determination [2] | EC50 (nM) GLP-1R, cAMP formation, earlier determination [1] | Binder
5 | 0.09 nM | 3.4 nM |  |  | H-H[Aib]AGTFTSDYSKYLDSK([γGlu-Palmitoyl])AAHDFVEWLLSA-NH2 (SMILES CCCCCCCCCCCCCCCC(=O)N[C@@H](CCC(=O)NCCCC[C@H](NC(=O)[C@H](CO)NC(=O)[C@H](CC(=O)O)NC(=O)[C@H](CC(C)C)NC(=O)[C@H](Cc1ccc(O)cc1)NC(=O)[C@H](CCCCN)NC(=O)[C@H](CO)NC(=O)[C@H](Cc1ccc(O)cc1)NC(=O)[C@H](CC(=O)O)NC(=O)[C@H](CO)NC(=O)[C@@H](NC(=O)[C@H](Cc1ccccc1)NC(=O)[C@@H](NC(=O)CNC(=O)[C@H](C)NC(=O)C(C)(C)NC(=O)[C@@H](N)Cc1c[nH]cn1)[C@@H](C)O)[C@@H](C)O)C(=O)N[C@@H](C)C(=O)N[C@@H](C)C(=O)N[C@@H](Cc1c[nH]cn1)C(=O)N[C@@H](CC(=O)O)C(=O)N[C@@H](Cc1ccccc1)C(=O)N[C@H](C(=O)N[C@@H](CCC(=O)O)C(=O)N[C@@H](Cc1c[nH]c2ccccc12)C(=O)N[C@@H](CC(C)C)C(=O)N[C@@H](CC(C)C)C(=O)N[C@@H](CO)C(=O)N[C@@H](C)C(N)=O)C(C)C)C(=O)O) [Compound 17]
6 | 0.09 nM | 8 nM |  |  | H-H[Aib]SGTFTSDYSKYLDSK([γGlu-Palmitoyl])AAHDFVEWLLSA-NH2 (SMILES CCCCCCCCCCCCCCCC(=O)N[C@@H](CCC(=O)NCCCC[C@H](NC(=O)[C@H](CO)NC(=O)[C@H](CC(=O)O)NC(=O)[C@H](CC(C)C)NC(=O)[C@H](Cc1ccc(O)cc1)NC(=O)[C@H](CCCCN)NC(=O)[C@H](CO)NC(=O)[C@H](Cc1ccc(O)cc1)NC(=O)[C@H](CC(=O)O)NC(=O)[C@H](CO)NC(=O)[C@@H](NC(=O)[C@H](Cc1ccccc1)NC(=O)[C@@H](NC(=O)CNC(=O)[C@H](CO)NC(=O)C(C)(C)NC(=O)[C@@H](N)Cc1c[nH]cn1)[C@@H](C)O)[C@@H](C)O)C(=O)N[C@@H](C)C(=O)N[C@@H](C)C(=O)N[C@@H](Cc1c[nH]cn1)C(=O)N[C@@H](CC(=O)O)C(=O)N[C@@H](Cc1ccccc1)C(=O)N[C@H](C(=O)N[C@@H](CCC(=O)O)C(=O)N[C@@H](Cc1c[nH]c2ccccc12)C(=O)N[C@@H](CC(C)C)C(=O)N[C@@H](CC(C)C)C(=O)N[C@@H](CO)C(=O)N[C@@H](C)C(N)=O)C(C)C)C(=O)O) [Compound 18]
7 | 0.16 nM | 0.74 nM | 3 nM |  | H-H[Aib]IGTFTSDYSKYLDSK([γGlu-Palmitoyl])AAHDFVEWLLSA-NH2 (SMILES CCCCCCCCCCCCCCCC(=O)N[C@@H](CCC(=O)NCCCC[C@H](NC(=O)[C@H](CO)NC(=O)[C@H](CC(=O)O)NC(=O)[C@H](CC(C)C)NC(=O)[C@H](Cc1ccc(O)cc1)NC(=O)[C@H](CCCCN)NC(=O)[C@H](CO)NC(=O)[C@H](Cc1ccc(O)cc1)NC(=O)[C@H](CC(=O)O)NC(=O)[C@H](CO)NC(=O)[C@@H](NC(=O)[C@H](Cc1ccccc1)NC(=O)[C@@H](NC(=O)CNC(=O)[C@@H](NC(=O)C(C)(C)NC(=O)[C@@H](N)Cc1c[nH]cn1)[C@@H](C)CC)[C@@H](C)O)[C@@H](C)O)C(=O)N[C@@H](C)C(=O)N[C@@H](C)C(=O)N[C@@H](Cc1c[nH]cn1)C(=O)N[C@@H](CC(=O)O)C(=O)N[C@@H](Cc1ccccc1)C(=O)N[C@H](C(=O)N[C@@H](CCC(=O)O)C(=O)N[C@@H](Cc1c[nH]c2ccccc12)C(=O)N[C@@H](CC(C)C)C(=O)N[C@@H](CC(C)C)C(=O)N[C@@H](CO)C(=O)N[C@@H](C)C(N)=O)C(C)C)C(=O)O) [Compound 19]
8 | 0.21 nM | 26 nM |  | 0.89 nM | H-H[Aib]GGTFTSDYSKYLDSK([γGlu-Palmitoyl])AAHDFVEWLLSA-NH2 (SMILES CCCCCCCCCCCCCCCC(=O)N[C@@H](CCC(=O)NCCCC[C@H](NC(=O)[C@H](CO)NC(=O)[C@H](CC(=O)O)NC(=O)[C@H](CC(C)C)NC(=O)[C@H](Cc1ccc(O)cc1)NC(=O)[C@H](CCCCN)NC(=O)[C@H](CO)NC(=O)[C@H](Cc1ccc(O)cc1)NC(=O)[C@H](CC(=O)O)NC(=O)[C@H](CO)NC(=O)[C@@H](NC(=O)[C@H](Cc1ccccc1)NC(=O)[C@@H](NC(=O)CNC(=O)CNC(=O)C(C)(C)NC(=O)[C@@H](N)Cc1c[nH]cn1)[C@@H](C)O)[C@@H](C)O)C(=O)N[C@@H](C)C(=O)N[C@@H](C)C(=O)N[C@@H](Cc1c[nH]cn1)C(=O)N[C@@H](CC(=O)O)C(=O)N[C@@H](Cc1ccccc1)C(=O)N[C@H](C(=O)N[C@@H](CCC(=O)O)C(=O)N[C@@H](Cc1c[nH]c2ccccc12)C(=O)N[C@@H](CC(C)C)C(=O)N[C@@H](CC(C)C)C(=O)N[C@@H](CO)C(=O)N[C@@H](C)C(N)=O)C(C)C)C(=O)O) [Compound 20]
